Data from the supplement of paper PMC10567573.

B1: WDFY2 (parent)
chain: FWNFKQMWDSKKIGLRQHHCRKCG
B2: CCND1 (parent)
chain: PEAEENKQIIRKHAQTFVALCATD

Variants of: B1
Test: protein stability index of a GFP-peptide fusion (GPS, HEK-293T) (PSI 1-6); higher = more stable
Conditions: c terminus: a fixed tail appended
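Also: lentivirally expressed fusions sorted by FACS into six bins by GFP to DsRed ratio, PSI derived from sequencing read proportions per bin multiplied by bin number.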

Protein stability index of substitutions, site by site:
K5: A 1.81 | E 2.22 | L 1.83 | V 2.33 | S 1.52 | Y 1.24 | F 1.38 | R 1.24
H18: Y 2.5 | K 2.06 | V 1.83 | D 1.79 | R 2.5 | F 1.51 | L 1.76 | N 3.5 | C 2.94 | A 1.73 | T 1.56 | I 1.8
M7: D 2.41 | W 1.74 | L 2 | E 2.82 | P 2.06 | G 1.68 | S 2.57 | T 2.11 | R 2.33 | Q 2.21 | N 1.62 | H 2.48
G14: C 2.45 | V 2 | S 3.27 | Y 2.53 | H 1.82 | T 2.4 | P 1.46 | F 1.93 | Q 1.32 | W 1.91 | D 2.41
C20: Q 2.15 | D 1.89 | A 1.82 | P 1.94 | E 2.47 | S 2.49 | I 2.01 | W 3.08 | T 2.28 | K 2.15 | M 3.04
K12: V 2.42 | C 2.79 | I 2.06 | G 1.58 | A 1.68 | H 2.01 | M 1.73 | E 2.05 | T 2.08
W2: Q 1.19 | I 2.23 | C 2.19 | K 2.04 | L 1.93 | P 2.58 | H 2.32 | F 1.61 | Y 2.25 | A 1.86 | S 1.42 | N 2.63
K22: Q 2.21 | G 1.65 | S 2.72 | N 1.57 | Y 1.78 | M 1.8 | A 1.09 | V 1.7 | T 2.87 | I 4.49
F4: Q 2.41 | L 1.94 | K 1.46 | T 2.3 | V 2.33 | D 2.27 | R 2.33 | A 1.61
H19: K 2.39 | Y 1.76 | F 1.79 | D 2.11 | G 2.38 | I 2.22 | R 2.39 | C 1.73 | V 1.98
D9: F 1.54 | S 1.28 | H 2.63 | C 1.2 | K 2.05 | P 2.43
R21: G 1.85 | Q 2.11 | T 1.71 | E 2.02 | V 1.21 | Y 1.58
F1: S 2 | W 2.25 | D 2.59 | N 2.32 | K 2.11 | V 2.86 | R 2.01 | H 2.66 | M 1.52
K11: R 1.74 | S 1.25 | M 1.83 | P 2.19 | I 2.5 | W 1.51 | E 2.61 | Y 2.71 | L 1.73
Q17: F 1.35 | I 2.84 | K 1.38 | G 1.49 | R 2 | N 1.35 | W 1.82 | S 1.99
I13: K 1.99 | S 2.54 | R 2.01 | F 2.15 | W 1.67 | P 1.86 | M 2.29 | Q 1.73 | Y 2.25 | E 2.28 | H 1.81 | N 2.42 | V 2.02
G24: D 2.09 | N 1.67 | H 1.71 | A 1.58 | I 1.51 | P 2.03 | M 2.38 | S 2.39 | C 2.4 | K 1.98 | W 1.68
W8: N 3.72 | Y 2.04 | P 2.16 | A 2.12 | L 2.59 | V 2.22 | D 3 | S 2.14
N3: M 1.35 | L 1.42 | R 1.42 | V 3.37 | C 2.08 | S 3.29 | H 1.77 | Q 2.1
S10: H 2.55 | P 2.17 | V 1.78 | Q 2.65 | M 1.76 | Y 1.72 | A 1.32 | R 1.53
L15: T 2.01 | F 1.81 | K 2.32 | I 1.92 | R 2.61 | S 2.25 | P 2.68 | G 2.14 | Y 1.93 | V 2.34 | M 1.97
R16: S 2.15 | A 1.97 | D 2.06 | V 2.1
C23: I 2.48 | R 1.79 | W 2.45 | P 2.16 | H 2.24 | T 2.44 | G 2.14 | K 2.38 | M 1.94 | L 2.01
Q6: L 2.03 | C 2.34 | H 2.27 | M 1.93 | Y 1.6 | I 1.68

Variants of: B2
Test: as above
Conditions: c terminus: a fixed tail appended

Protein stability index: each site, then its substitutions
A19: V 4.04 | D 2.6 | S 2.89 | E 2.49 | L 2.59 | Q 2.5 | C 3.3 | T 4.06 | Y 3.64 | N 2.92 | W 3.06 | G 2.91 | P 4.92 | M 2.55 | I 2.85 | F 3.08 | H 3.32 | K 3.54 | R 3.96
L20: R 2.09 | D 4.62 | C 3.82 | N 3.84 | S 4.43 | F 4.21 | W 4.15 | I 3.33 | H 3.21 | M 2.11 | V 2.87 | E 4.8 | Y 2.66 | K 2.59 | G 4.71 | T 4.04 | P 4.79 | A 3.3 | Q 2.85
A22: K 3.66 | D 3.87 | W 2.09 | V 2.52 | E 2.96 | I 2.95 | P 4.49 | N 4.43 | M 2.67 | C 2.15 | F 2.63 | L 2.72 | Q 2.91 | S 3.19 | Y 3.02 | H 3.38 | G 3.37 | R 3.16 | T 2.87
C21: P 4.7 | I 1.98 | N 5.27 | Q 4.95 | D 5.22 | K 5.07 | Y 2.96 | V 2.24 | H 4.37 | R 4.86 | G 5.04 | F 3.75 | A 4.05 | E 4.9 | L 1.66 | M 3.28 | W 3.59 | S 4.07 | T 2.78
D24: M 2.93 | W 2.39 | N 3.88 | A 3.27 | Q 3.8 | E 2.33 | R 2.7 | T 3.35 | L 2.79 | F 2.23 | K 3.84 | C 2.71 | S 3.9 | P 3.63 | Y 2.89 | G 2.85 | V 2.54 | I 2.15 | H 2.77
V18: Y 3.75
T23: H 2.64 | P 3.07 | A 2.87 | E 2.21 | V 2.87 | W 2.63 | I 2.38 | D 3.22 | L 2.35 | M 2.94 | G 2.64 | C 2.64 | R 2.48 | Y 2.47 | N 2.94 | K 2.92 | S 2.48 | Q 2.54 | F 1.75
